Here are results for one substance from publication PMC5838229.

In this experiment the target is Flag-DNAJC5 (secreted) (UniProt Q9H3Z4). Nature of the experiment: co-IP; conditioned medium of cells expressing Flag-DNAJC5 and HA-GFP1-10; Flag beads against control Sepharose beads; precipitated and unbound fractions analysed by immunoblotting. (In western blotting, separated proteins are transferred to a membrane and probed.)
Sequence of UniProt Q9H3Z4 (Q9H3Z4 whole entry): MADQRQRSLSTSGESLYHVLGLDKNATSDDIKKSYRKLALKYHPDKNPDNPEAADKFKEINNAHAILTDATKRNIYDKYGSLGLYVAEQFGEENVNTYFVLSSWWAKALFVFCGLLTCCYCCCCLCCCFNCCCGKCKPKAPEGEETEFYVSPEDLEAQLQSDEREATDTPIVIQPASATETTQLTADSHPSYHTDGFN

“HA-GFP1-10 (secreted) (domain or fragment)” returned a percent co-depleted with Flag-DNAJC5 of over 60%.
